Experiments:
[1] = molecular target: tau mutant M123 (triple mutant, M1+M2+M3) with GFP fused at the N-terminal (human) (UniProt P10636); test: immunocytochemistry, transfected SHSY5Y cells
[2] = molecular target: tau mutant M123 (triple mutant, M1+M2+M3) with GFP fused at the N-terminal (human) (UniProt P10636); test: immunocytochemistry, SHSY5Y cells 36 h after transfection
[3] = molecular target: wild-type human tau 441 with GFP fused at the N-terminal (human) (UniProt P10636); test: as above
Sequence of wild-type human tau 441 with GFP fused at the N-terminal (human) (P10636 other isoform, or with tags, fused parts or gaps): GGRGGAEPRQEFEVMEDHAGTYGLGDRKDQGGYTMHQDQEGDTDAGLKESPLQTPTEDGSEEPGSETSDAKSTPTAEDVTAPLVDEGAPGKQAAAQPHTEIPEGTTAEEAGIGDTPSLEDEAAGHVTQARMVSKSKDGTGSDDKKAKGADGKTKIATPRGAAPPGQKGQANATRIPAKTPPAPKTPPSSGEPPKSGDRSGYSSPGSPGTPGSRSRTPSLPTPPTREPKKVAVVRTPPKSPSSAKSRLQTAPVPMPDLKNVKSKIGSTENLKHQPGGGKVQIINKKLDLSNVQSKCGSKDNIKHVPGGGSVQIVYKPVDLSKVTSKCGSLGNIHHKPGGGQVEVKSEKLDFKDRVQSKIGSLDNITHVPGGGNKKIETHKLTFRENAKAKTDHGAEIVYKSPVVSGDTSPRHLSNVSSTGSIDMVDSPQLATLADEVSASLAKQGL

Sequence of tau mutant M123 (triple mutant, M1+M2+M3) with GFP fused at the N-terminal (human) (P10636 other isoform, or with tags, fused parts or gaps mutant): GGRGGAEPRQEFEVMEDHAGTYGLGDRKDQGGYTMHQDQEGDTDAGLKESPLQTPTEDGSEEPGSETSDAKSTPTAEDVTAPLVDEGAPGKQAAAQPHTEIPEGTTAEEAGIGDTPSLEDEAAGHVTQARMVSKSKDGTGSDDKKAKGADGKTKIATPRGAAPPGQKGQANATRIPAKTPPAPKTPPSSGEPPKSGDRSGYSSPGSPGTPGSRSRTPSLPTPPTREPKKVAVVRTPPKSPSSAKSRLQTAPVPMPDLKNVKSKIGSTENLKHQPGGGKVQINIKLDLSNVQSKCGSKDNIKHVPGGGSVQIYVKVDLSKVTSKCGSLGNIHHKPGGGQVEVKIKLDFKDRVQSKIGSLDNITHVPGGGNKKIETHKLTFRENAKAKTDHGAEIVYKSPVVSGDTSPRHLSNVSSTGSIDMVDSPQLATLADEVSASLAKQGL

| Substance | percentage of transfected cells AT180 immunopositive [1] [%] | percentage of transfected cells with AT8 immunolabeling [2] [%] | percentage of transfected cells with AT8 immunolabeling [3] [%] |
| --- | --- | --- | --- |
| AT180 antibody (phosphoepitope T231) | 22.1 | – | – |
| AT8 antibody (S202/T205 specific) | – | 83.2 | 9.17 |
